Laboratory results from patent US20230288411A1, “POLYPEPTIDE, MULTIMER, SOLID PHASE, MEASUREMENT METHOD FOR TEST SUBSTANCE, AND REAGENT KIT” (SYSMEX CORPORATION, priority 2020, published 2023).
“Also recorded” adds a separate entry of the source.

Key:
L-biotin-labeled albumin = assay: SPR (Biacore T200) binding evaluation to L-biotin-labeled albumin; parameters: species or system bovine; conditions: analyte flowed at 30 μL/min up to 100 nM, single cycle method, albumin immobilized on sensor chip
Protocol: (§1) A binding ability of D-streptavidin obtained in Example 1 to D-biotin as a natural form and L-biotin as an optical isomer of D-biotin was evaluated by an intermolecular interaction analyzer (Biacore T200) using SPR as a measurement principle.
Similarly, L-biotin-labeled albumin was prepared using L-biotin-AC5-OSu [see (Amidation of L-biotin) described in Example 3 above].
Bovine serum albumin was immobilized on flow cells 1 and 3 of a CMS sensor chip (manufactured by Cytiva) of a Biacore T200 system at a target level of 400 RU by an amine coupling method with an amine coupling kit (Cytiva). Further, L-biotin-labeled albumin and D-biotin-labeled albumin were immobilized at a target level of 400 RU to flow cells 2 and 4, respectively, similarly by an amine coupling method. Blocking was performed in each flow cell with 1 M ethanolamine solution, pH 8.5 (manufactured by Cytiva). […]
(§2) Using HBS-EP+(manufactured by Cytiva) as a running buffer, the prepared D-tamavidin (trademark) 2 was flowed into each flow cell at a flow rate of 30 μL/min in the range of 100 pM to 100 nM by a single cycle method, and binding and dissociation to D-biotin or L-biotin was evaluated by Biacore T200 Evaluation Software (manufactured by Cytiva).

D-biotin-labeled albumin = assay: SPR (Biacore T200) binding evaluation to D-biotin-labeled albumin; parameters: species or system bovine; conditions: analyte flowed at 30 μL/min up to 100 nM, single cycle method, albumin immobilized on sensor chip
Protocol: as §1
An N,N-dimethylformamide solution (16.3 μL) containing 10 mg/mL D-biotin-AC5-OSu (manufactured by DOJINDO LABORATORIES) was added to 2.8 mL of 50 mg/mL bovine serum albumin/0.1 M phosphate buffer solution (pH 7.5), and the mixture was stirred, then allowed to stand at 35° C. for 1 hour. Thereafter, desalting was performed by PD-10 (17085101, manufactured by Cytiva) equilibrated with a 0.1 M phosphate buffer (pH 7.5), and D-biotin-labeled albumin was recovered. The number of labeled D-biotin per molecule of albumin by HABA method was 0.4.
Bovine serum albumin was immobilized on flow cells 1 and 3 of a CMS sensor chip (manufactured by Cytiva) of a Biacore T200 system at a target level of 400 RU by an amine coupling method with an amine coupling kit (Cytiva). […]
as §2

B1: D-tamavidin (trademark) 2: avidin-like protein derived from Pleurotus cornucopiae consisting of D amino acids, 2nd to 141st amino acid sequence of SEQ ID NO: 4 (peptide, listed as Pleurotus cornucopiae)
chain: SDVQSSLTGTWYNELNSKMELTANKDGTLTGKYLSKVGDVYVPYPLSGRYNLQPPAGQGVALGWAVSWENSKIHSATTWSGQFFSESSPVILTQWLLSSSTARGDVWESTLVGNDSFTKTAPTEQQIAHAQLHCRAPRLK
modifications: D-amino acids
L-biotin-labeled albumin
  binding to L-biotin-labeled albumin (SPR sensorgram): increase in the SPR signal was observed; also recorded: binds
D-biotin-labeled albumin
  binding to D-biotin-labeled albumin (SPR sensorgram): No increase in SPR signal; also recorded: does not substantially bind
